Experimental data as given in patent US7803571B2, “Method for identifying IRS inhibitors or agonists” (Sanfoi-Aventis Deutschland GmbH, priority 2003, dated 2010).
Residue numbers refer to the chain shown, from its start. Names and notes keep the numbering of the source. Like-named read-outs stand apart in the source and are kept apart here. Square brackets hold non-standard residues; d marks the D form. Peptide text beside a SMILES is read from it. pY = N[C@@H](Cc1ccc(OP(=O)(O)O)cc1)C(=O)O; pS = N[C@@H](COP(=O)(O)O)C(=O)O

B1: rIRS-1^449-664: glutathione S-transferase (GST) fusion protein containing the amino acids 449-664 of rat IRS-1 (SEQ ID NO: 17) (protein)
chain: PPARGEEELSNYICMGGKGASTLTAPNGHYILSRGGNGHRYIPGATMGTSPALTGDEAAGAADLDNRFRKRTHSAGTSPTISHQKTPSQSSVVSIEEYTEMMPAAYPPGGGSGGRLPGYRHSAFVPTHSYPEEGLEMHHLERRGGHHRPDSSNLHTDDGYMPMSPGVAPVPSNRKGNGDYMPMSPKSVSAPQQIINPIRRHPQRVDPNGYMMMSPS
modifications: left off: a dimerising Fc or GST
B2: S612A: serine 612 to alanine mutant of rIRS-1^449-664 GST fusion protein (protein, UniProt P35570 449-664, looked up, variant S612A)
chain: B1 chain with S164A
modifications: GST fusion
notes: serine 612 to alanine mutant of rIRS-1^449-664 GST fusion protein
B3: S570A: serine 570 to alanine mutant of rIRS-1^449-664 GST fusion protein (protein, UniProt P35570 449-664, looked up, variant S570A)
chain: B1 chain with S122A
modifications: GST fusion
notes: serine 570 to alanine mutant of rIRS-1^449-664 GST fusion protein
B4: PKC-ζ: recombinant human protein kinase C-ζ, obtained from Calbiochem (protein)
chain: MPSRTGPKMEGSGGRVRLKAHYGGDIFITSVDAATTFEELCEEVRDMCRLHQQHPLTLKWVDSEGDPCTVSSQMELEEAFRLARQCRDEGLIIHVFPSTPEQPGLPCPGEDKSIYRRGARRWRKLYRANGHLFQAKRFNRRAYCGQCSERIWGLARQGYRCINCKLLVHKRCHGLVPLTCRKHMDSVMPSQEPPVDDKNEDADLPSEETDGIAYISSSRKHDSIKDDSEDLKPVIDGMDGIKISQGLGLQDFDLIRVIGRGSYAKVLLVRLKKNDQIYAMKVVKKELVHDDEDIDWVQTEKHVFEQASSNPFLVGLHSCFQTTSRLFLVIEYVNGGDLMFHMQRQRKLPEEHARFYAAEICIALNFLHERGIIYRDLKLDNVLLDADGHIKLTDYGMCKEGLGPGDTTSTFCGTPNYIAPEILRGEEYGFSVDWWALGVLMFEMMAGRSPFDIITDNPDMNTEDYLFQVILEKPIRIPRFLSVKASHVLKGFLNKDPKERLGCRPQTGFSDIKSHAFFRSIDWDLLEKKQALPPFQPQITDDYGLDNFDTQFTSEPVQLTPDDEDAIKRIDQSEFEGFEYINPLLLSTEESV

Columns and labels:
[1] = target: T1, p85α (Bos taurus, UniProt P23727); assay: Surface plasmon resonance competition assay: binding of 100 nM p85α to immobilized IRS-1 peptides in the presence of competing soluble peptide; design: species or system bovine; settings: SPR response at equilibrium 440 s after injection, competitor identical to immobilized peptide
T1 construct: GST (N, cleaved yes); made in house; host or cells: Escherichia coli BL21
Protocol: The principle of operation of the BIAcore™ biosensor (Biacore, Freiburg, Germany) has been described previously (42). To avoid the interfering dimerization of the GST part of the fusion protein, it was cleaved with thrombin during the purification. Because of the known extremely fast association rates of SH2-domains to phosphopeptides the relative affinities were assessed by competition assay (43). Therefore, a constant concentration of p85α (100 nM) was incubated in running buffer (0.01 M Hepes pH 7.4, 0.15 M NaCl, 3 mM EDTA, 0.005% Surfactant P20 (HBS-EP)) with a variable concentration of the competitor peptide (50 nM-10 μM), which was identical to that bound on the CM5 sensor chip surface. After a 1 h preincubation at room temperature the various mixtures were then injected sequentially at a flow rate of 5 μl/min at 25° C. in HBS-EP buffer. The used peptides DDGYMPMSPGV (SEQ ID NO: 7), DDGpYMPMSPGV, DDGYMPMpSPGV and DDGpYMPMpSPGV, representing the amino acids 605 to 615 of rat IRS-1, were synthesized on an Applied Biosystems model 433 peptide synthesizer. All peptides were immobilized with a concentration of 5 mg/ml in 100 mM […] (NaOH pH 8.5) at 1 μl/min by standard amine coupling procedure as described by the manufacturer. Regeneration after each binding experiment was performed by injection of 6 M guanidine hydrochloride for 2 min. The kinetic analysis of the p85α with pY608 and […] interaction has been performed using the BIAevaluation 3.1 software (Biacore, Freiburg, Germany) and GraphPad Prism 3.0 (San Diego, Calif., USA).
The inventors then determined the relative binding affinity of this reaction by monitoring the binding of 100 nM p85α to the peptides pY608 (DDGpYMPMSPGV) and pY608-pS612 (DDGpYMPMpSPGV) in the presence of competing soluble peptides (FIGS. 6D, E, F). Half-maximum inhibitory concentrations (IC50) were obtained by plotting the SPR response 440 s after injection at equilibrium versus the log peptide concentration. […] Solubilized peptides inhibited binding of p85α to the immobilized peptides at micromolar concentrations. […] In order to identify additional PKC-ζ phosphorylation sites on rIRS-1^449-664 that might promote the inhibition of insulin-stimulated tyrosine phosphorylation in the in vitro system, rIRS-1^449-664 was incubated with PKC-ζ and separated by SDS-PAGE. Phosphorylated rIRS-1^449-664 was digested with trypsin and extracted from the gel. The peptides generated by digestion were resolved by two dimensional HPLC and the content of radioactivity in the fractions was monitored by Cerenkov counting. […] To separate comigrating peptides, radioactive fractions of each peak were pooled according to the elution profile and subjected to reversed phase (RP)-HPLC (FIG. 7B). […]

[2] = target: T2, insulin receptor (Rattus norvegicus, UniProt P15127); assay: In vitro phosphorylation assay: tyrosine phosphorylation of rIRS-1^449-664 by insulin receptor; assay type: biochemical
T2 construct: from tissue; host or cells: rat liver
Protocol: Rat liver was rapidly removed, immediately frozen in liquid nitrogen and processed as described (41). Briefly, 3.5 vol/wt of an ice-cold buffer consisting of 50 mM Hepes (pH 7.4), 1% Triton X-100 and 2× Complete Protease Inhibitors was added and the liver was homogenized using an Ultraturrax and a Potter-Elvehjem homogenizer, followed by centrifugation at 10,000×g for 10 min at 4° C. The resultant supernatant was slowly stirred at room temperature for 60 min, then again centrifuged at 100,000×g for 90 min at 4° C. The supernatant was then applied to an agarose-bound wheat germ agglutinin (WGA) column. The column was washed with 50 mM Hepes (pH 7.4), 0.1% Triton X-100, and bound glycoproteins were eluted from the WGA column with this buffer containing 0.3 M N-acetylglucoseamine.
For rIRS-1^449-664 phosphorylation by insulin receptor, […] of the WGA-purified glycoprotein fraction was preincubated for 30 min at 30° C. with 100 nM of insulin in a phosphorylation buffer containing 20 mM Hepes (pH 7.4), 1 mM DTT, 10 mM MgCl2, 100 μg/ml bovine serum albumin, 0.2 mM Na3VO4, 1.7 mM CaCl2, 0.6 mg/ml phosphatidylserine, and 0.5 μg/ml okadaic acid. Autophosphorylation was initiated by the addition of ATP at a concentration of 50 μM and continued for 10 min at 30° C. Substrate phosphorylations were initiated by addition of equal volumes of […] (1 μg) with or without pre-treatment (30 min) by the PKC isoforms in the same buffer in the presence of 50 μM ATP and was allowed to proceed for 10 min at 30° C. in a final volume of 50 μl. The reaction was terminated by the addition of 6× sample buffer (0.35 M Tris-HCl (pH 6.8), 10.28% (w/v) SDS, 36% (v/v) glycerol; 0.6 M DTT, 0.012% (w/v) bromphenol blue) and boiling for 5 min. Proteins were separated by SDS-PAGE and analyzed by immunodetection with an anti-phosphotyrosine antibody after transfer to nitrocellulose. Serine/threonine phosphorylation of rIRS-1^449-664 by different PKC isoforms was assessed by incubating 1 μg rIRS-1^449-664 with 0.5 μg PKC-rb or PKC-ζ in phosphorylation buffer for 30 min at 30° C. in the presence of 50 μM ATP plus 2 μCi [γ-^32P]ATP in a volume of 20 μl. Proteins were resolved by SDS-PAGE and the stained and dried gels were subjected to autoradiography. The extent of phosphate incorporation was determined by Cerenkov counting of excised fragments.
Proteins were separated by SDS-PAGE using 8-18% gradient gels followed by transfer to nitrocellulose in a semi-dry blotting apparatus. […] All blots were quantified using the Lumilmager software. Significance of reported differences was evaluated by using the null hypothesis and t statistics for unpaired data. […]

[3] = target: T1, p85α; assay: GST pull down assay: interaction of rIRS-1^449-664 with p85α; assay type: binding, bovine; settings: for p85α binding after PKC-ζ treatment, % of control: insulin-stimulated control value set as 100%, n=3
Protocol: In vitro phosphorylated rIRS-1^449-664 was incubated with glutathione sepharose beads on a rotator for 1 h at 4° C. Pellets were washed three times with binding buffer (50 mM Tris (pH 7.4), 150 mM NaCl, 1% (v/v) Nonidet P-40, 1 mM EDTA, 1 mM NaF, 1 mM Na3VO4). Then 0.5 μg recombinant p85α was added and incubation was continued for 2 h at 4° C. After three times washing, the bound proteins were eluted with 20 μl of 2× sample buffer and separated by SDS-PAGE.
Proteins were separated by SDS-PAGE using 8-18% gradient gels followed by transfer to nitrocellulose in a semi-dry blotting apparatus. The membrane was then blocked 60 min in Tris-buffered saline containing 0.05% Tween 20 and 1% BSA or 5% non fat dry milk and probed with appropriate antibodies (anti-IRS-1, anti-pTyr, anti-p85α). After extensive washing, the membranes were incubated with horseradish peroxidase-conjugated secondary antibodies, again washed and then the protein bands were visualized by the enhanced chemiluminescence (ECL) method on a Lumilmager workstation (Boehringer, Mannheim, Germany). All blots were quantified using the Lumilmager software. Significance of reported differences was evaluated by using the null hypothesis and t statistics for unpaired data. A p value less than 0.05 was considered to be statistically significant.

[4] = target: T3, IR β-subunit (Rattus norvegicus, UniProt P15127); assay: Autophosphorylation of IR β-subunit in the presence of PKC isoforms; assay type: biochemical; settings: autoactivated receptor incubated 10 min at 30° C. with PKC
T3 construct: from tissue; host or cells: rat liver
Protocol: (A) Autophosphorylation of IR was conducted as outlined in FIG. 2. Either PKC-rb or PKC-ζ was added after 10 min of autophosphorylation and incubation was continued for another 10 min. Tyrosine phosphorylation of IR β-subunit was then analyzed by immunoblotting. (B) Quantification of blots was obtained using Lumi Imager software. Data are mean values±SEM (n=4-6).
For rIRS-1^449-664 phosphorylation by insulin receptor, […] of the WGA-purified glycoprotein fraction was preincubated for 30 min at 30° C. with 100 nM of insulin in a phosphorylation buffer containing 20 mM Hepes (pH 7.4), 1 mM DTT, 10 mM MgCl2, 100 μg/ml bovine serum albumin, 0.2 mM Na3VO4, 1.7 mM CaCl2, 0.6 mg/ml phosphatidylserine, and 0.5 μg/ml okadaic acid. Autophosphorylation was initiated by the addition of ATP at a concentration of 50 μM and continued for 10 min at 30° C. […] Proteins were separated by SDS-PAGE and analyzed by immunodetection with an anti-phosphotyrosine antibody after transfer to nitrocellulose. Serine/threonine phosphorylation of rIRS-1^449-664 by different PKC isoforms was assessed by incubating 1 μg rIRS-1^449-664 with 0.5 μg PKC-rb or PKC-ζ in phosphorylation buffer for 30 min at 30° C. in the presence of 50 μM ATP plus 2 μCi [γ-^32P]ATP in a volume of 20 μl. […] The extent of phosphate incorporation was determined by Cerenkov counting of excised fragments.

[5] = read-out: IC50, inhibition of p85α binding by soluble peptide, two site competition fit, first value
[6] = read-out: IC50, inhibition of p85α binding by soluble peptide, two site competition fit, second value
[7] = rIRS-1^449-664 preincubated with 0.5 μg PKC for 30 min, insulin-stimulated value set as 100%

T1 sequence (P23727 whole entry): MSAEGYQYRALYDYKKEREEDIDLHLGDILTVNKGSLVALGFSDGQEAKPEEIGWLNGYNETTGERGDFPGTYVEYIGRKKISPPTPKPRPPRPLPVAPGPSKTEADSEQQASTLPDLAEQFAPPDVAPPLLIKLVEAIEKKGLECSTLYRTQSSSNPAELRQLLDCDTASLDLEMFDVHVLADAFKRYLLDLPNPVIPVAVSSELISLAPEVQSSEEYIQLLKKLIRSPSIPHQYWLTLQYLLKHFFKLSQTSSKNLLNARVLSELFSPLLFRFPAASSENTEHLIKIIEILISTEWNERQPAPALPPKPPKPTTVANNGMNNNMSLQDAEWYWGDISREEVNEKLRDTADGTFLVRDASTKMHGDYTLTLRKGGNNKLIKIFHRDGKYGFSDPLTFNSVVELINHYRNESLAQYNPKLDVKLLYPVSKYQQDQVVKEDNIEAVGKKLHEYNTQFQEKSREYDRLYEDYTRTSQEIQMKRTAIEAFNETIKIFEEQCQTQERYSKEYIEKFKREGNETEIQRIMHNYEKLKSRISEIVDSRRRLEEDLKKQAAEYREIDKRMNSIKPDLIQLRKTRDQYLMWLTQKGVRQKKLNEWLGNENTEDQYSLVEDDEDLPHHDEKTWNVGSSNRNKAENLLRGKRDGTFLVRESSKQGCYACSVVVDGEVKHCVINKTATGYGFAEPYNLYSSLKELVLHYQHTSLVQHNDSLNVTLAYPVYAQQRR
T2 sequence (P15127 27-759 limits assumed): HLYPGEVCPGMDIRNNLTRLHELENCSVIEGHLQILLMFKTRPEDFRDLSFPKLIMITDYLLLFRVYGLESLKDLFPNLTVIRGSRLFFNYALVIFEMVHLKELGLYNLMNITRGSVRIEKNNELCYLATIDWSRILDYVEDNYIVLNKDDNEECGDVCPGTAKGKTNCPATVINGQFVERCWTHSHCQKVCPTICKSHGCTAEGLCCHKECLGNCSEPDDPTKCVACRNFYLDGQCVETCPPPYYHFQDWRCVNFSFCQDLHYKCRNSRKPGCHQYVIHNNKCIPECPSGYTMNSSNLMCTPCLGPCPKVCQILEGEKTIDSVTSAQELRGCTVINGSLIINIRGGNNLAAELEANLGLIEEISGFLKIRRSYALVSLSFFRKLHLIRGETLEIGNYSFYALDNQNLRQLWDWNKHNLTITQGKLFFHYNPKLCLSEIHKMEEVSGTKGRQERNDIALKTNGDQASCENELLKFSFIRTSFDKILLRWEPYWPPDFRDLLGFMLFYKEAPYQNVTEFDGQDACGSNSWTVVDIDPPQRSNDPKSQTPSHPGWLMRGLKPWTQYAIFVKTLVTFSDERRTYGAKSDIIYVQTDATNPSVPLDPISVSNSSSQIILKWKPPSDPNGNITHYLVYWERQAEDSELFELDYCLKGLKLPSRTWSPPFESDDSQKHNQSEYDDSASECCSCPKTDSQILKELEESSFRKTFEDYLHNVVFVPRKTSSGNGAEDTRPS
T3 sequence (P15127 27-759 limits assumed): as above

IC50 [1, 5]	IC50 [1, 6]	p85α binding after PKC-ζ treatment, % of control [3]	other results	Molecule
150 nM	2880 nM			CSCC[C@H](NC(=O)[C@@H]1CCCN1C(=O)[C@H](CCSC)NC(=O)[C@H](Cc1ccc(OP(=O)(O)O)cc1)NC(=O)CNC(=O)[C@H](CC(=O)O)NC(=O)[C@@H](N)CC(=O)O)C(=O)N[C@@H](COP(=O)(O)O)C(=O)N1CCC[C@H]1C(=O)NCC(=O)N[C@H](C(=O)O)C(C)C [pY608-pS612, DDGpYMPMpSPGV] (H-DDG[pY]MPM[pS]PGV-OH)
260 nM	16600 nM			CSCC[C@H](NC(=O)[C@@H]1CCCN1C(=O)[C@H](CCSC)NC(=O)[C@H](Cc1ccc(OP(=O)(O)O)cc1)NC(=O)CNC(=O)[C@H](CC(=O)O)NC(=O)[C@@H](N)CC(=O)O)C(=O)N[C@@H](CO)C(=O)N1CCC[C@H]1C(=O)NCC(=O)N[C@H](C(=O)O)C(C)C [pY608, DDGpYMPMSPGV] (H-DDG[pY]MPMSPGV-OH; N-terminus and C-terminus assumed)
			Insulin-stimulated tyrosine phosphorylation, stimulation over basal ([2]; WGA-purified insulin receptor, 100 nM insulin, n=10): 8.8±1.1 fold; Reduction of tyrosine phosphorylation by IR after PKC-ζ pretreatment ([2]; wild type and mutant fusion proteins as substrate, relative to insulin-stimulated control): 30-40%; Interaction of p85α with the tyrosine phosphorylated fusion protein ([3]; after insulin-stimulated tyrosine phosphorylation by IR): significant increase	B1
		28±3 % of control		B2
		43±4 % of control		B3
			Reduction of insulin-stimulated tyrosine phosphorylation of rIRS-1^449-664 by PKC pretreatment [2, 7]: 46±5%; Inhibition of p85α association with rIRS-1^449-664 by PKC pretreatment [3, 7]: 81±1%; Alteration of IR autophosphorylation compared to controls [4]: No significant alteration	B4
